The series concerns the molecule itself. As to the kind of experiment: crystal structure; HsFN3KΔ crystals, hanging drop vapor diffusion at 20 °C (0.5 M ammonium sulfate, 0.1 M tri-sodium citrate, 1 M lithium sulfate); space group P212121, two molecules in the asymmetric unit; apo and soaked with nucleotides and DMF.

B1: HsFN3KΔ (human fructosamine-3-kinase with an internal loop truncation: amino acid 117–138 replaced with a GSS linker) (enzyme)
chain: MEQLLRAELRTATLRAFGGPGAGCISEGRAYDTDAGPVFVKVNRRTQARQMFEGEVASLEALRSTGLVRVPRPMKVIDLPGGGAAFVMEHLKMKSLSSQASKLGEQMADLHLYNQKGSSYVDKFGFHTVTCCGFIPQVNEWQDDWPTFFARHRLQAQLDLIEKDYADREARELWSRLQVKIPDLFCGLEIVPALLHGDLWSGNVAEDDVGPIIYDPASFYGHSEFELAIALMFGGFPRSFFTAYHRKIPKAPGFDQRLLLYQLFNYLNHWNHFGREYRSPSLGTMRRLLK
notes: human fructosamine-3-kinase (FN3K), Gene ID 64122, residues before the truncated loop (up to residue 116); linker that replaces amino acids 117–138; human fructosamine-3-kinase (FN3K), Gene ID 64122, residues after the truncated loop (from residue 139); Construct used for all crystal structures; also called apo-HsFN3K; apo-HsFN3KΔ; source: E. coli Rosetta 2 (DE3), purified (Ni-NTA, SP-HP cation …)
As a reminder, the stoichiometry N is a count of units in the complex or per binding partner. On to B1, for which the “stoichiometry N” value amounted to 2.

The record behind these values is article doi:10.1101/2024.08.05.606604, “The molecular basis of Human FN3K mediated phosphorylation of glycated substrate” (bioRxiv, 2024).
